The values below are quoted from earlier work in PMC4286324.

The data set concerns the target Nef (Human immunodeficiency virus 1) (UniProt P04324).

Consider Hck SH3 (from UniProt P08631), for which the Kd was 250 nM.
